Data published in US20140295512A1, “Ketol-Acid Reductoisomerases With Improved Performance Properties” (CALIFORNIA INSTITUTE OF TECHNOLOGY, priority 2011, published 2014).
Where “and” joins values, the source holds several entries; their conditions need not be identical. Equal values may be shown once. Read-outs that look alike come from different tables or passages of the source.

Legend:
Assay type in all cases: biochemical
[1] = KARI enzyme assay on cell lysates with NADH and NADPH as cofactors; conditions: for NADH-Dependent Specific Activity: empty vector control subtracted
Experimental: In this example, different KARI enzymes (Table 7) were screened for their activity with NADH and NADPH as cofactor. The enzymes were expressed in an S. cerevisiae strain by means of 2 micron plasmids carrying the KARI genes under the control of the S. cerevisiae TDH3 promoter. The transformants were cultivated in shake flask fermentations as described below and samples were taken after 44 h, centrifuged at 4000×g for 10 mins at 4° C. and the cell pellets were stored at −80° C. until analysis. The pellets were lysed by bead beating and the lysates were analyzed by KARI activity assay as described below using NADH and NADPH as cofactors.
Patched cells (or single colonies) grown on YPD+G418 plates at 30° C. were mixed into 3 mL YP+12% dextrose+200 mM MES, pH 6.5+G418, in 14 mL culture tubes and incubated at 250 RPM, 30° C. for ˜24 hours. The cells from the cultures were used to inoculate YP+12% dextrose+200 mM MES, pH 6.5+G418, in non-baffled flasks with a vented grey screw-caps at OD600 0.01. The cultures were incubated at 250 RPM, 30° C. for 24 hours, diluted 1:3 and incubated for another 20 h at 250 RPM, 30° C. Samples for enzyme assay pellets and protein quantification pellets were taken from each shake flask, and cell-free supernatant was used to measure glucose levels in shake flasks.
The assay and no substrate control reactions were performed in triplicate for each sample. The following stock solutions were prepared: 1 M potassium phosphate, pH 7, 0.1 M MgCl2, 100 mM DTT, 25 mM NADH or NADPH, 200 mM 2-acetolactate. The 2-acetolactate was made fresh each time by mixing 50 μL Ethyl-2-acetoxy-2-methylacetoacetate (EAMAA) with 990 μL water. Gradually 260 μL of 2 N NaOH was added in 10 μL increments to the EAMAA water mixture. After each addition the sample was vortexed for 15 seconds, and the procedure repeated until the entire 260 μL of 2 N NaOH was added. Afterwards the solution was mixed on an orbital shaker for 20 min (Krampitz, 1957). KARI reaction buffer (100 μL per reaction) was prepared to the following concentrations: 250 mM potassium phosphate, pH 7, 10 mM MgCl2, 1 mM DTT, 0.2 mM NADH or NADPH, 10 mM 2-acetolactate. For the no substrate controls, the 2-acetolactate was substituted with water. 10 μL of each lysate were transferred into a 96 well half area assay plate. The reaction was started with 90 μL of reaction buffer to each well using a multichannel pipette. The samples were mixed immediately. The samples were read at 340 nm every 10 s for 5 min.

[2] = KARI assay in 100-μL scale to measure MgCl2 KM value; conditions: for Km: NADPH, pH 7.0, read-out: KM Mg^2+
Experimental: An assay buffer was prepared containing 100 mM potassium phosphate pH 7.0, 1 mM DTT, 2.5 mM (S)-2-acetolactate, and 200 μM NADPH (final concentrations). Five μL purified enzyme and 5 μL of varying concentrations of MgCl2 were placed into a flat-bottom assay plate (Evergreen Scientific). The reactions were initiated by addition of 90 μL assay buffer. The change in absorbance at 340 nm was monitored over 1 min in a plate reader (TECAN).

[3] = KARI assay in 1-mL scale to measure NADPH KM value (Example 5); conditions: for Km: Example 5, pH 7.0
Experimental: KARI activity was assayed kinetically by monitoring the decrease in NADPH or NADH concentration by measuring the change in absorbance at 340 nm. An assay buffer was prepared containing 100 mM potassium phosphate pH 7.0, 1 mM DTT, 2.5 mM (S)-2-acetolactate, and 10 mM MgCl2 (final concentrations in the 1-mL assay). Twenty μL purified enzyme and 960 μL of the assay buffer were placed into a 1-mL cuvette. The reaction was initiated by addition of 20 μL NADPH or NADH (200 μM final concentration) for a general activity assay. Michaelis-Menten constants for the cofactors were determined with varying concentrations of NADPH or NADH (200-12 μM final).

[4] = KARI assay of purified S. exigua KARI and variants with NADH (Examples 6-9)
Outline: (§1)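 Kinetic read of NAD(P)H consumption at 340 nm in 100 mM potassium phosphate pH 7.0 with 1 mM DTT, 2.5 mM (S)-2-acetolactate and 10 mM MgCl2, cofactor 200 μM final. For Michaelis–Menten constants, NADPH was varied 200–12 μM and NADH 200–6 μM.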

[5] = KARI assay of purified S. exigua KARI and variants with NADPH (Examples 6-9); conditions: for U/mg NADPH (specific activity): cofactor NADPH
Outline: as §1

B1: E. coli IlvC: Escherichia coli ketol-acid reductoisomerase (ilvC), wild type (protein, UniProt P05793 2-491, looked up)
Ketol-acid reductoisomerase …: ANYFNTLNLRQQLAQLGKCRFMGRDEFADGASYLQGKKVVIVGCGAQGLNQGLNMRDSGLDISYALRKEAIAEKRASWRKATENGFKVGTYEELIPQADLVINLTPDKQHSDVVRTVQPLMKDGAALGYSHGFNIVEVGEQIRKDITVVMVAPKCPGTEVREEYKRGFGVPTLIAVHPENDPKGEGMAIAKAWAAATGGHRAGVLESSFVAEVKSDLMGEQTILCGMLQAGSLLCFDKLVEEGTDPAYAEKLIQFGWETITEALKQGGITLMMDRLSNPAKLRAYALSEQLKEIMAPLFQKHMDDIISGEFSSGMMADWANDDKKLLTWREETGKTAFETAPQYEGKIGEQEYFDKGVLMIAMVKAGVELAFETMVDSGIIEESAYYESLHELPLIANTIARKRLYEMNVVISDTAEYGNYLFSYACVPLLKPFMAELQPGDLGKAIPEGAVDNGQLRDVNEAIRSHAIEQVGKKLRGYMTDMKRIAVAG
Specific Activity with NADH/Specific Activity with NADPH [1]: 0.175 | NADH-Dependent Specific Activity [1]: 0.04 U/mg lysate | KM for Mg^2+, times higher than KM of S. exigua KARI [2]: 2.9 fold | Km [2]: 2000 ± 500 µM | NADPH KM, times higher than NADPH KM for S. exigua KARI [3]: ~20 fold | Km [3]: 20 ± 3 µM

B2: Se1_KARI: Slackia exigua (ATCC 700122) ketol-acid reductoisomerase, wild type, SEQ ID NO: 2 (protein, listed as Slackia exigua)
chain: MSVKTKEKEMAVTILYEQDVDPKVIQGLKVGIIGYGSQGHAHALNLMDSGVDVRVGLREGSSSWKTAEEAGLKVTDMDTAAEEADVIMVLVPDEIQPKVYQEHIAAHLKAGNTLAFAHGFNIHYGYIVPPEDVNVIMCAPKGPGHIVRRQFTEGSGVPDLACVQQDATGNAWDIVLSYCWGVGGARSGIIKATFAEETEEDLFGEQAVLCGGLVELVKAGFETLTEAGYPPELAYFECYHEMKMIVDLMYESGIHFMNYSISNTAEYGEYYAGPKVINEQSREAMKEILKRIQDGSFAQEFVDDCNNGHKRLLEQREAINTHPIETTGAQIRSMFSWIKKED
Specific Activity with NADH/Specific Activity with NADPH [1]: 0.96 | NADH-Dependent Specific Activity [1]: 0.059 U/mg lysate | Km [2]: 700 µM | Km [3]: < 1 µM | kcat NADH [4]: 0.40 s⁻¹ | U/mg NADH (specific activity) ([4]; cofactor NADH): 0.15 U/mg | kcat NADH ([4]; listed as Se1_KARI (wt)): 0.40 s⁻¹ | kcat/Km ratio NADH/NADPH (cofactor specificity) ([4]; listed as Se1_KARI (wt)): 0.08 | kcat NADH ([4]; listed as Se1_KARI^his6): 0.4 s⁻¹ | kcat/Km ratio NADH/NADPH (cofactor specificity) ([4]; listed as Se1_KARI^his6): 0.08 | Km ([4]; read-out: Km for cofactor NADH): 45 µM | Ratio NADH/NADPH (U/mg) ([4]; specific activity ratio): 0.47 | kcat NADPH [5]: 0.80 s⁻¹ | U/mg NADPH (specific activity) [5]: 0.32 ± 0.03 U/mg | U/mg NADPH (specific activity) ([5]; listed as Se1_KARI (wt)): 0.32 U/mg | U/mg NADPH (specific activity) ([5]; listed as Se1_KARI^his6): 0.32 U/mg and 0.32 ± 0.03 U/mg | kcat NADPH ([5]; listed as Se1_KARI (wt)): 0.80 s⁻¹ | kcat NADPH ([5]; listed as Se1_KARI^his6): 0.8 s⁻¹ | Km ([5]; read-out: Km for cofactor NADPH): < 1 µM
